Results on one substance are retold here after US20230058774A1.

In assay [1] the target is human Fas, wild type (human) (UniProt P25445). As to the kind of experiment: cell-based or functional assay.
Assay [2] has as its target FasDNR (Fas dominant negative receptor, deletion of amino acids 230-314 of human Fas) (human) (UniProt P25445). The assay is described as follows: cell-based or functional assay.

For the substance “soluble FasL oligomerized through a leucine zipper motif (FasL-LZ) (from UniProt P48023 103-281) (ligand)”, the apoptosis (active Caspase3/7 and Annexin V) of primary human CD8+ T cells exposed to 100 ng/ml FasL-LZ in assay [1] was 70%; in assay [2], under 20%.
